In PMC8770131, “Structural mechanism for the selective phosphorylation of DNA-loaded MCM double hexamers by the Dbf4-dependent kinase” (Nature Structural & Molecular Biology, 2021):

T1: Mcm4 (S. cerevisiae, UniProt P30665 1-933)
T1 construct: Mcm4, S. cerevisiae; Subunit as it stands in the DH of the cryo-EM structures; modelled from residue 155 in the DDK-engaged model; also called Mcm4 subunit; source: S. cerevisiae, overexpressed as Mcm2-7-Cdt1, purified; in the DNA-loaded double hexamer
T1 sequence: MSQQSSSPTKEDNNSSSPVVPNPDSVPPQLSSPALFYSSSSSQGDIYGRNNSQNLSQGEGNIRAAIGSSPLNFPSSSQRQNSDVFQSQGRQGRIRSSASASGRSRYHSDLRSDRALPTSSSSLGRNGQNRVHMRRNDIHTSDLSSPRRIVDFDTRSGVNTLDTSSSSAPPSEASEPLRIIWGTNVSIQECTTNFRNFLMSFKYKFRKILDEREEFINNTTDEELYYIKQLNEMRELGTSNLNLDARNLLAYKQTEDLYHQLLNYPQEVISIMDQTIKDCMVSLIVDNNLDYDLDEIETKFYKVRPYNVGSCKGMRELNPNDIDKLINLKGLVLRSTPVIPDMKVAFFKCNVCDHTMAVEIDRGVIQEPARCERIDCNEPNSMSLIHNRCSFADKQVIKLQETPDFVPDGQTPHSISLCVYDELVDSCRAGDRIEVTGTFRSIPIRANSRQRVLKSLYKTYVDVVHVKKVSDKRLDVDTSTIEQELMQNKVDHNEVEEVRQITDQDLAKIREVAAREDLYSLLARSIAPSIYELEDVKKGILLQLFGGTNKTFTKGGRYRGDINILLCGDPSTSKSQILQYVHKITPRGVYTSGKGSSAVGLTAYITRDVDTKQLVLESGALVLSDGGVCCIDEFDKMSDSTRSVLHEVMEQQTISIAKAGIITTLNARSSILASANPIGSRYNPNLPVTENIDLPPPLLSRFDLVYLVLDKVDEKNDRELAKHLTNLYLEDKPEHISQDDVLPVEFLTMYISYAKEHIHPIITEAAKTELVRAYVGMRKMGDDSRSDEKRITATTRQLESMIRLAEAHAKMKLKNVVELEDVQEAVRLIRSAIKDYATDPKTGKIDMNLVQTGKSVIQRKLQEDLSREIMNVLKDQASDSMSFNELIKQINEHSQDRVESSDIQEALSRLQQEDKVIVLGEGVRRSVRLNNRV

T2: Mcm2 (S. cerevisiae, UniProt P29469 1-868)
T2 construct: Mcm2, S. cerevisiae; Subunit as it stands in the DH of the cryo-EM structures; also called Mcm2 subunit; source: S. cerevisiae, overexpressed as Mcm2-7-Cdt1, purified; in the DNA-loaded double hexamer
T2 sequence: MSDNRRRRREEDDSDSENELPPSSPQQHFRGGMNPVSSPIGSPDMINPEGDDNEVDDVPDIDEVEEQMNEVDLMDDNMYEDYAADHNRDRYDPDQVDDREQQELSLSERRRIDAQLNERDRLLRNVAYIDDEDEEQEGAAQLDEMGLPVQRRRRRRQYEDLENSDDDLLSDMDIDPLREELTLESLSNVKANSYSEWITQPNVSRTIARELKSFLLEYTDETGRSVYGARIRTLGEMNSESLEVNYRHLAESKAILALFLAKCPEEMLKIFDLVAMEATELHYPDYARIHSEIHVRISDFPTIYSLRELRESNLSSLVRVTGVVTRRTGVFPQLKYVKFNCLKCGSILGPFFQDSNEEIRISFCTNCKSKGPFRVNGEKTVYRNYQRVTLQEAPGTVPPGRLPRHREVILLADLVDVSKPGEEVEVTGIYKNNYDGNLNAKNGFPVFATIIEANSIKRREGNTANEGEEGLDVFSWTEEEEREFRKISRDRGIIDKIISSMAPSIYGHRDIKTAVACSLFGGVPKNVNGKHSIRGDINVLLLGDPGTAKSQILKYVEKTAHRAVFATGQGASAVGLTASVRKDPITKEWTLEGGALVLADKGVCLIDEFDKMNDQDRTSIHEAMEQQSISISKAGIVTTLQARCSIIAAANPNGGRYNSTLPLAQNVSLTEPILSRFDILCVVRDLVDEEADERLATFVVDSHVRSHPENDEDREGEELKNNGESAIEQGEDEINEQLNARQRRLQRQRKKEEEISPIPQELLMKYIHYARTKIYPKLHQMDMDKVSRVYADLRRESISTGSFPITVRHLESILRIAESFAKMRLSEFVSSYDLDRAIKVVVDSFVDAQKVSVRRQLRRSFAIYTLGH

B1: Cdc7 (enzyme, S. cerevisiae)
chain: MTSKTKNIDDIPPEIKEEMIQLYHDLPGIENEYKLIDKIGEGTFSSVYKAKDITGKITKKFASHFWNYGSNYVALKKIYVTSSPQRIYNELNLLYIMTGSSRVAPLCDAKRVRDQVIAVLPYYPHEEFRTFYRDLPIKGIKKYIWELLRALKFVHSKGIIHRDIKPTNFLFNLELGRGVLVDFGLAEAQMDYKSMISSQNDYDNYANTNHDGGYSMRNHEQFCPCIMRNQYSPNSHNQTPPMVTIQNGKVVHLNNVNGVDLTKGYPKNETRRIKRANRAGTRGFRAPEVLMKCGAQSTKIDIWSVGVILLSLLGRRFPMFQSLDDADSLLELCTIFGWKELRKCAALHGLGFEASGLIWDKPNGYSNGLKEFVYDLLNKECTIGTFPEYSVAFETFGFLQQELHDRMSIEPQLPDPKTNMDAVDAYELKKYQEEIWSDHYWCFQVLEQCFEMDPQKRSSAEDLLKTPFFNELNENTYLLDGESTDEDDVVSSSEADLLDKDVLLISE
notes: Cdc7, S. cerevisiae; Subunit as it stands in DDK in the DH-DDK cryo-EM structure; also called Cdc7 catalytic subunit of DDK; source: S. cerevisiae, overexpressed with CBP-Dbf4, purified as DDK
B2: Dbf4 (natural protein, S. cerevisiae)
chain: MVSPTKMIIRSPLKETDTNLKHNNGIAASTTAAGHLNVFSNDNNCNNNNTTESFPKKRSLERLELQQQQHLHEKKRARIERARSIEGAVQVSKGTGLKNVEPRVTPKELLEWQTNWKKIMKRDSRIYFDITDDVEMNTYNKSKMDKRRDLLKRGFLTLGAQITQFFDTTVTIVITRRSVENIYLLKDTDILSRAKKNYMKVWSYEKAARFLKNLDVDLDHLSKTKSASLAAPTLSNLLHNEKLYGPTDRDPRTKRDDIHYFKYPHVYLYDLWQTWAPIITLEWKPQELTNLDELPYPILKIGSFGRCPFIGDRNYDESSYKRVVKRYSRDKANKKYALQLRALFQYHADTLLNTSSVNDQTKNLIFIPHTCNDSTKSFKKWMQEKAKNFEKTELKKTDDSAVQDVRNEHADQTDEKNSILLNETETKEPPLKEEKENKQSIAEESNKYPQRKELAATPKLNHPVLATFARQETEEVPDDLCTLKTKSRQAFEIKASGAHQSNDVATSFGNGLGPTRASVMSKNMKSLSRLMVDRKLGVKQTNGNNKNYTATIATTAETSKENRHRLDFNALKKDEAPSKETGKDSAVHLETNRKPQNFPKVATKSVSADSKVHNDIKITTTESPTASKKSTSTNVTLHFNAQTAQTAQPVKKETVKNSGYCENCRVKYESLEQHIVSEKHLSFAENDLNFEAIDSLIENLRFQI
notes: Dbf4, S. cerevisiae; Subunit as it stands in DDK in the DH-DDK cryo-EM structure; also called Dbf4 subunit of DDK; CBP-Dbf4; source: S. cerevisiae, overexpressed with Cdc7, purified as DDK
B3: Mcm7 (natural protein, S. cerevisiae)
chain: MSAALPSIQLPVDYNNLFNEITDFLVTFKQDTLSSDATRNENEDENLDAENIEQHLLEKGPKYMAMLQKVANRELNSVIIDLDDILQYQNEKFLQGTQADDLVSAIQQNANHFTELFCRAIDNNMPLPTKEIDYKDDVLDVILNQRRLRNERMLSDRTNEIRSENLMDTTMDPPSSMNDALREVVEDETELFPPNLTRRYFLYFKPLSQNCARRYRKKAISSKPLSVRQIKGDFLGQLITVRGIITRVSDVKPAVEVIAYTCDQCGYEVFQEVNSRTFTPLSECTSEECSQNQTKGQLFMSTRASKFSAFQECKIQELSQQVPVGHIPRSLNIHVNGTLVRSLSPGDIVDVTGIFLPAPYTGFKALKAGLLTETYLEAQFVRQHKKKFASFSLTSDVEERVMELITSGDVYNRLAKSIAPEIYGNLDVKKALLLLLVGGVDKRVGDGMKIRGDINVCLMGDPGVAKSQLLKAICKISPRGVYTTGKGSSGVGLTAAVMKDPVTDEMILEGGALVLADNGICCIDEFDKMDESDRTAIHEVMEQQTISISKAGINTTLNARTSILAAANPLYGRYNPRLSPLDNINLPAALLSRFDILFLMLDIPSRDDDEKLAEHVTYVHMHNKQPDLDFTPVEPSKMREYIAYAKTKRPVMSEAVNDYVVQAYIRLRQDSKREMDSKFSFGQATPRTLLGIIRLSQALAKLRLADMVDIDDVEEALRLVRVSKESLYQETNKSKEDESPTTKIFTIIKKMLQETGKNTLSYENIVKTVRLRGFTMLQLSNCIQEYSYLNVWHLINEGNTLKFVDDGTMDTDQEDSLVSTPKLAPQTTASANVSAQDSDIDLQDA
notes: Mcm7, S. cerevisiae; also called Mcm7 subunit; source: S. cerevisiae, overexpressed as Mcm2-7-Cdt1, purified; in the DNA-loaded double hexamer

Legend:
Assay in all cases: cryo-EM structure; DH loaded with ORC, Cdc6 and Mcm2-7-Cdt1 (96 nM each) on MH-capped ARS1 DNA (8 nM) in buffer B at 30 °C, then 289 nM DDK for 50 min before plunge-freezing; neither crosslinking nor nucleotide analogs
Conditions in all cases: both partners purified
[1] = target: T1, Mcm4
[2] = target: B2
[3] = target: T2, Mcm2
[4] = target: T3, Mcm3 (S. cerevisiae, UniProt P24279 1-971)
T3 construct: Mcm3, S. cerevisiae; also called Mcm3 subunit; source: S. cerevisiae, overexpressed as Mcm2-7-Cdt1, purified; in the DNA-loaded double hexamer
T3 sequence (P24279 whole entry): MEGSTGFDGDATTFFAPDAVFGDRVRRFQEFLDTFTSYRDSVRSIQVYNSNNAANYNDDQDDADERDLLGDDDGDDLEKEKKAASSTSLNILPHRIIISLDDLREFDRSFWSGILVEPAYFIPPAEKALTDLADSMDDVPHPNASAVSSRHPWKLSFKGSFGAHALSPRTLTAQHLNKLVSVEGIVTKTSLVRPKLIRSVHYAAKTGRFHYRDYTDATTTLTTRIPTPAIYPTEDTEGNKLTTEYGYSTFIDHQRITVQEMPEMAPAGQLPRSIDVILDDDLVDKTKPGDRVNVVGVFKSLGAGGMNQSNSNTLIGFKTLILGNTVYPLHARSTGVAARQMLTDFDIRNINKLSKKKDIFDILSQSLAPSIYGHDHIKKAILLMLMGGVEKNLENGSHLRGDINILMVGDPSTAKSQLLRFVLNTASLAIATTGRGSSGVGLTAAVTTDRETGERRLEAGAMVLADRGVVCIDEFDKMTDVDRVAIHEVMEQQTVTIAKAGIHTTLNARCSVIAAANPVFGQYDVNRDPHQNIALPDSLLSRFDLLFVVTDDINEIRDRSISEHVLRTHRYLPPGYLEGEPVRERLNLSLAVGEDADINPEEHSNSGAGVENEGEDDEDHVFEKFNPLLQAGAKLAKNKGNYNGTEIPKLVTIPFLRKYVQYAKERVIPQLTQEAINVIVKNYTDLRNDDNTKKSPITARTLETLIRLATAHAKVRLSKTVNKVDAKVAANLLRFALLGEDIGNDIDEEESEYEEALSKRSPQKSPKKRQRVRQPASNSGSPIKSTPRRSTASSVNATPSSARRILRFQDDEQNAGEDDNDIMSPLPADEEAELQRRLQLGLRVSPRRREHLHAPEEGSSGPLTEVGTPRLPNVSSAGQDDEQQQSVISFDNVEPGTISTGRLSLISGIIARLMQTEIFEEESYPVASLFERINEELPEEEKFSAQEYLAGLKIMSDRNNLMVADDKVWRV

Row | binding result [1] | binding result [2] | binding result [3] | binding result [4] | Binder
1 | binds | binds |  |  | B1
2 | binds |  | binds |  | B2
3 | binds |  |  | binds | B3
